Reference: patent US20240108738A1 (Bicycle, published 2024)
Numbered stars: 1 amine (or outer) side, 2 acyl side, 3 side chain; on linkers, the order of the positions; unused ones are H or OH. Bridge positions count the residues as written; N and C are the ends. Square brackets hold non-standard residues; d marks the D form. Ends that are not written are not given here. TATA = O=C(CC[*:1])N1CN(C(=O)CC[*:2])CN(C(=O)CC[*:3])C1; Trp(1-Me) = Cn1cc(C[C@H](N)C(=O)O)c2ccccc21; cisHyp = O=C(O)[C@@H]1C[C@H](O)CN1; Hyp = O=C(O)[C@@H]1C[C@@H](O)CN1; hArg = N=C(N)NCCCC[C@H](N)C(=O)O; tBuAla = CC(C)(C)C[C@H](N)C(=O)O; Cha = N[C@@H](CC1CCCCC1)C(=O)O; Agb = N=C(N)NCC[C@H](N)C(=O)O; Cba = N[C@@H](CC1CCC1)C(=O)O; Chg = N[C@H](C(=O)O)C1CCCCC1; Tle = CC(C)(C)[C@H](N)C(=O)O; NMeA = CN[C@@H](C)C(=O)O; Nle = CCCC[C@H](N)C(=O)O; Sar = CNCC(=O)O

target: T1, Human NKp46 Fc tag (Acro Biosystems, NC1-H5257) (human, UniProt O76036 22-255); experiment: SPR Method 1 and/or 2
T1 construct: bought; also called Fc-tagged human NKp46
T1 sequence (O76036 22-255 limits assumed): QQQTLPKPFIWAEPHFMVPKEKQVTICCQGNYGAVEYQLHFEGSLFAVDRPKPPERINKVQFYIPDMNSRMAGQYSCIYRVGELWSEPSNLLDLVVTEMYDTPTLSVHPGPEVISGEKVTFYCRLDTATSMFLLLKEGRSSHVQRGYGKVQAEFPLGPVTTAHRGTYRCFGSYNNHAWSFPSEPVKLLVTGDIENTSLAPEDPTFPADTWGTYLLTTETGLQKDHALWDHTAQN
Procedure: The SPR analysis was run at 25° C. and a flow rate of 50 μl/min with 60 seconds association and 200-400 seconds dissociation time. Data were corrected for DMSO excluded volume effects. All data were double-referenced for blank injections and reference surface using standard processing procedures and data processing and kinetic fitting were performed using Scrubber software, version 2.0c (BioLogic Software). Data were fitted using simple 1:1 binding model allowing for mass transport effects where appropriate.
For analysis of peptide binding, a Biacore 8k+ instrument was used with a CM5 chip (Cytiva). All experiments were carried out at 25° C. Anti-human IgG (Fc) antibody (Cytiva) was immobilized on all flow cells by standard amine coupling chemistry. The running buffer was HBS-N(Cytiva, 10 mM HEPES, 0.15 M NaCl, pH 7.4) and the flow rate was 10 μL/min. The carboxymethyl dextran surface was activated with a 1:1 ratio of 0.4 M 1-ethyl-3-(3-dimethylaminopropyl) carbodiimide hydrochloride (EDC)/0.1 M N-hydroxy succinimide (NHS) (Cytiva) for 420s. […] Residual activated groups were blocked with a 420 s injection of 1 M ethanolamine (pH 8.5). The final surface density was 3000-5000 RU. Fc-tagged human NKp46 was diluted to 0.1 μM in HBS-N and was captured on flow cell 2 only of the sensor chip at a flow rate of 10 μL/min to 500-1000 RU. The buffer was then changed to PBS-P+(Cytiva) supplemented with 2% DMSO. […] The flow rate was 50 μL/min with 60 s association and 400 s dissociation. Data were corrected for DMSO volume exclusion effects. All data were double-referenced against blank injections and reference surface response using standard processing procedures. Data processing and kinetic fitting was performed using Biacore Insight Evaluation Software with Extended Screening and Characterization Extension (Cytiva). Data were fitted using steady state affinity 1:1 binding model to determine KD. Data were fitted using kinetic 1:1 binding model to determine kinetic constants where appropriate.

Binder	Kd [nM]
Ac-CNLQAPCMLTGKVC-NH2 (linker 1-7-14 via TATA (inferred), scaffold TATA) [BCY18293]	3380
ACNLQAPC[Nle]LTGKVCA-NH2 (linker 2-8-15 via TATA, scaffold TATA) [BCY18314]	3150
ACNLQA[NMeA]CMLTGKVCA-NH2 (linker 2-8-15 via TATA, scaffold TATA) [BCY18312]	1810
Ac-ACNLQAPCMLTGKVCA-NH2 (linker 2-8-15 via TATA (inferred), scaffold TATA) [BCY18294]	3260
ACNLQA[cisHyp]CMLTGKVCA-NH2 (linker 2-8-15 via TATA, scaffold TATA) [BCY18310]	802
ACNLQA[Sar]CMLTGKVCA-NH2 (linker 2-8-15 via TATA; N-terminus assumed; SMILES CSCC[C@@H]1NC(=O)[C@@H]2CSCCC(=O)N3CN(CN(C3)C(=O)CCSC[C@@H](C(=O)N[C@@H](C)C(N)=O)NC(=O)[C@H](C(C)C)NC(=O)[C@H](CCCCN)NC(=O)CNC(=O)[C@H]([C@@H](C)O)NC(=O)[C@H](CC(C)C)NC1=O)C(=O)CCSC[C@H](NC(=O)[C@H](C)N)C(=O)N[C@@H](CC(N)=O)C(=O)N[C@@H](CC(C)C)C(=O)N[C@@H](CCC(N)=O)C(=O)N[C@@H](C)C(=O)N(C)CC(=O)N2, scaffold TATA) [BCY18309]	2570
ACDLTTHNCQWG[tBuAla]CA-NH2 (linker 2-9-14 via TATA, scaffold TATA) [BCY18290]	4890
ACNLQAPCMLTGKVCA-NH2 (linker 2-8-15 via TATA; also: scaffold TATA, TATB or TBMT, scaffold TATA) [BCY15099]	1120
ACNLQAPCMLTAKVCA-NH2 (linker 2-8-15 via TATA; also: scaffold TATA, TATB or TBMT, scaffold TATA) [BCY18303]	2750
ACNLQAPCLLTGKVCA-NH2 (linker 2-8-15 via TATA; also: scaffold TATA, TATB or TBMT, scaffold TATA) [BCY18313]	2750
ACNLQAPCMLTGKACA-NH2 (linker 2-8-15 via TATA; also: scaffold TATA, TATB or TBMT, scaffold TATA) [BCY18305]	907
ACDLTTHNCQ[Trp(1-Me)]GICA-NH2 (linker 2-9-14 via TATA; N-terminus assumed; SMILES CC[C@H](C)[C@@H]1NC(=O)CNC(=O)[C@H](Cc2cn(C)c3ccccc23)NC(=O)[C@H](CCC(N)=O)NC(=O)[C@@H]2CSCCC(=O)N3CN(CN(C3)C(=O)CCSC[C@@H](C(=O)N[C@@H](C)C(N)=O)NC1=O)C(=O)CCSC[C@H](NC(=O)[C@H](C)N)C(=O)N[C@@H](CC(=O)O)C(=O)N[C@@H](CC(C)C)C(=O)N[C@@H]([C@@H](C)O)C(=O)N[C@@H]([C@@H](C)O)C(=O)N[C@@H](Cc1c[nH]cn1)C(=O)N[C@@H](CC(N)=O)C(=O)N2, scaffold TATA) [BCY18288]	354
ACN[tBuAla]QAPCMLTGKVCA-NH2 (linker 2-8-15 via TATA, scaffold TATA) [BCY18307]	2110
ACNLQA[Hyp]CMLTGKVCA-NH2 (linker 2-8-15 via TATA, scaffold TATA) [BCY18311]	795
ACDLTTHNCQWG[Tle]CA-NH2 (linker 2-9-14 via TATA, scaffold TATA) [BCY18289]	572
ACDLTTHNCQWG[Chg]CA-NH2 (linker 2-9-14 via TATA, scaffold TATA) [BCY18291]	2850

The next lines start with the values.

Kd [nM]	Binder
991	ACNLQAPCM[Cba]TGKVCA-NH2 (linker 2-8-15 via TATA, scaffold TATA) [BCY18319]
548	ACNLQAPCM[Cha]TGKVCA-NH2 (linker 2-8-15 via TATA; also: Cha: filing contradicts itself on L or D, scaffold TATA) [BCY18321]
887	ACNLQAPCMLTG[hArg]VCA-NH2 (linker 2-8-15 via TATA; N-terminus assumed; SMILES CSCC[C@@H]1NC(=O)[C@@H]2CSCCC(=O)N3CN(CN(C3)C(=O)CCSC[C@@H](C(=O)N[C@@H](C)C(N)=O)NC(=O)[C@H](C(C)C)NC(=O)[C@H](CCCCNC(=N)N)NC(=O)CNC(=O)[C@H]([C@@H](C)O)NC(=O)[C@H](CC(C)C)NC1=O)C(=O)CCSC[C@H](NC(=O)[C@H](C)N)C(=O)N[C@@H](CC(N)=O)C(=O)N[C@@H](CC(C)C)C(=O)N[C@@H](CCC(N)=O)C(=O)N[C@@H](C)C(=O)N1CCC[C@H]1C(=O)N2, scaffold TATA) [BCY18328]
2780	ACNLQAPCMLTGK[Chg]CA-NH2 (linker 2-8-15 via TATA; N-terminus assumed; SMILES CSCC[C@@H]1NC(=O)[C@@H]2CSCCC(=O)N3CN(CN(C3)C(=O)CCSC[C@@H](C(=O)N[C@@H](C)C(N)=O)NC(=O)[C@H](C3CCCCC3)NC(=O)[C@H](CCCCN)NC(=O)CNC(=O)[C@H]([C@@H](C)O)NC(=O)[C@H](CC(C)C)NC1=O)C(=O)CCSC[C@H](NC(=O)[C@H](C)N)C(=O)N[C@@H](CC(N)=O)C(=O)N[C@@H](CC(C)C)C(=O)N[C@@H](CCC(N)=O)C(=O)N[C@@H](C)C(=O)N1CCC[C@H]1C(=O)N2, scaffold TATA) [BCY18326]
466	ACNLQAPCMLT[dA]KVCA-NH2 (linker 2-8-15 via TATA (inferred), scaffold TATA) [BCY18322]
2340	ACNLQAPCMLTGRVCA-NH2 (linker 2-8-15 via TATA; also: scaffold TATA, TATB or TBMT, scaffold TATA) [BCY18323]
2080	ACNLQAPCMFTGKVCA-NH2 (linker 2-8-15 via TATA; also: scaffold TATA, TATB or TBMT, scaffold TATA) [BCY18317]
854	ACNLQAPCMLTGK[Tle]CA-NH2 (linker 2-8-15 via TATA, scaffold TATA) [BCY18325]
878	ACNLQAPC[Cba]LTGKVCA-NH2 (linker 2-8-15 via TATA; N-terminus assumed; SMILES CC(C)C[C@@H]1NC(=O)[C@H](CC(N)=O)NC(=O)[C@@H](NC(=O)[C@H](C)N)CSCCC(=O)N2CN3CN(C2)C(=O)CCSC[C@H](NC(=O)[C@@H]2CCCN2C(=O)[C@H](C)NC(=O)[C@H](CCC(N)=O)NC1=O)C(=O)N[C@@H](CC1CCC1)C(=O)N[C@@H](CC(C)C)C(=O)N[C@@H]([C@@H](C)O)C(=O)NCC(=O)N[C@@H](CCCCN)C(=O)N[C@@H](C(C)C)C(=O)N[C@H](C(=O)N[C@@H](C)C(N)=O)CSCCC3=O, scaffold TATA) [BCY18315]
1500	ACNLQAPCMLTG[Agb]VCA-NH2 (linker 2-8-15 via TATA; N-terminus assumed; SMILES CSCC[C@@H]1NC(=O)[C@@H]2CSCCC(=O)N3CN(CN(C3)C(=O)CCSC[C@@H](C(=O)N[C@@H](C)C(N)=O)NC(=O)[C@H](C(C)C)NC(=O)[C@H](CCNC(=N)N)NC(=O)CNC(=O)[C@H]([C@@H](C)O)NC(=O)[C@H](CC(C)C)NC1=O)C(=O)CCSC[C@H](NC(=O)[C@H](C)N)C(=O)N[C@@H](CC(N)=O)C(=O)N[C@@H](CC(C)C)C(=O)N[C@@H](CCC(N)=O)C(=O)N[C@@H](C)C(=O)N1CCC[C@H]1C(=O)N2, scaffold TATA) [BCY18324]
622	ACNLQAPCM[tBuAla]TGKVCA-NH2 (linker 2-8-15 via TATA, scaffold TATA) [BCY18320]
